1 molecule from patent publication US20220204610A1, “PROTEIN BINDERS FOR IRHOM2” (NEW YORK SOCIETY FOR THE RELIEF OF THE RUPTURED AND …, priority 2019, published 2022) can be followed below.

The subject of assay [1] is LPS-induced release of endogenous TNFα from human THP-1 macrophage cells. Nature of the assay: TNFα release (shedding) assay, functional screen of hybridoma supernatants. The class given is cell-based. Particulars: supernatants of monoclonal 4H8 sub-clones; assay as in Example 5. The source says: After 14 days of culture, supernatants of hybridoma cells were collected and—instead of being selected for iRhom2 binding antibodies—were subjected to an ELISA-based functional screen for iRhom2 activity-neutralizing antibodies. Since the crucial role of iRhom2 in TACE-mediated release of tumor necrosis factor alpha (TNFα) from macrophages is very well established (McIlwein et al., 2012, Adrain et al., 2012, Siggs et al., 2012), the human TNF-alpha DuoSet ELISA (R&D Systems, USA) was employed to compare the lipopolysaccharide (LPS)-induced release of endogenous TNFα from human THP-1 macrophage cells in the presence and absence of all 5280 peptide immunization-derived hybridoma supernatants.
In brief, on day 1, Nunc black MaxiSorp® 96-well plates (Thermo Fisher Scientific, USA) were coated overnight with 100 μl per well of mouse anti-human TNFα capture antibody (provided as part of the DuoSet ELISA kit) at 4 μg/m1 TBS at 4° C. […] Using an infinite M1000 PRO (Tecan Group, Switzerland) microplate reader, the fluorescence of each well was collected at an excitation wavelength of 435 nm and an emission wavelength of 555 nm.
In brief, cells of the hybridoma population 4H8 were counted and the dilution factor to end up with an average of two cells per well of 96-well plates was calculated. […]

For assay [2], the target named is T1, human iRhom2 (Homo sapiens, UniProt Q6PJF5).
T1 construct: the single peptide 3 resembling amino acids 431 to 459 of the extracellular juxtamembrane domain of human iRhom2; made in house; host or cells: chemical synthesis (Fmoc solid phase peptide synthesis), no expression host
T1 sequence (Q6PJF5 with tags, fused parts or gaps): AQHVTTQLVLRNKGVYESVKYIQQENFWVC
Nature of the assay: Peptide binding ELISA, binding specificity (Example 10), iRhom2 peptides. The note with it: antibody 3 μg/ml PBS; peptide coated at 10 μg/ml; normalized to IgM isotype control. The method, then:
Another series of peptide binding ELISA experiments was conducted to address the specificity of the purified antibody 4H8-E3 of the invention, i.e. to question whether this antibody specifically recognizes peptides, in particular peptide 3, resembling the extracellular juxtamembrane region adjacent to the TMD1 of human iRhom2, or whether the antibody 4H8-E3 of the invention also binds to peptides reflecting the homologous region of the closely related family member human iRhom1.
In brief, on day 1, Nunc black MaxiSorp® 96-well plates (Thermo Fisher Scientific, USA) were coated overnight with 100 μl per well of single biotinylated peptides 1 to 4, Mix A consisting of peptides 1 to 4, single biotinylated peptides 1b to 4b, and Mix D consisting of peptides 1b to 4b at 10 μg/m1 PBS each (thus, the final concentration of each peptide in both mixes was 2.5 μg/m1) at 4° C. On day 2, peptide solutions were removed and MaxiSorp® plates were blocked with 300 μl per well of Pierce protein-free (TBS) blocking buffer (Thermo Fisher Scientific, USA) at room temperature for 1.5 hours. […] Using an infinite M1000 PRO (Tecan Group, Switzerland) microplate reader, the fluorescence of each well was collected at an excitation wavelength of 435 nm and an emission wavelength of 555 nm.
(In general: In an ELISA, binding on a coated surface is turned into a signal by an enzyme label.)

B1: 4H8-E3: Mouse IgM monoclonal antibody against the human iRhom2 juxtamembrane domain adjacent to TMD1; HC VD SEQ ID NO 33, LC VD SEQ ID NO 40 (antibody, V domains shown)
VH: EVQLQQSGPELVKPGASVKISCKASGYTFTDYYMNWVKQSHGKSLEWIGDINPNNGGTSYNQKFKGKATLTVDKSSNTAYMEFRSLTSEDSAVYYCARRGYYGVDYWGQGTTLTVSS
VL: NIVMTQSPKSMSMSVGERVTLNCKASENVGTYVSWYQQKPEQSPKLLIFGASNRYTGVPDRFIGSGFATDFTLTISSVQAEDLADYHCGQSYSYPYTFGGGTKLEIK
modifications: IgM constant regions; antibody sequence
For the molecule B1, in assay [1], the “inhibitory effect of sub-clone supernatants on LPS-induced release of TNFα from THP-1 cells” value is “significantly interfere”. The “binding to single peptide 3 (amino acids 431 to 459 of human iRhom2)” value in assay [2] was “Binding”.
